Assay: yeast display, Sf9 membrane polyspecificity reagent, FACS + sequencing; frameworks hold sequencing errors
Procedure, shortened: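 Synthetic nanobody libraries on Saccharomyces cerevisiae BJ5465 were galactose-induced for 36–48 hours, stained 1 hour at 4 °C with 10% biotinylated, detergent-solubilized Sf9 membrane reagent and enriched on streptavidin microbeads. FACS then separated cells into low and high (top ~1%) gates by anti-HA (expression) and streptavidin (reagent binding) fluorescence. Genes were colony-PCR amplified, MiSeq 2 × 250 sequenced and CDR-length filtered. A clone's polyreactivity label is that of its gate of origin.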

Sequence | polyreactivity (PSR sort gate)
QVQLQESGGGLVQAGGSLRLSCAASGSIVVSVTMGWYRKAPGKESELVASIGRGSTTNHADSVKGRFTISRDNAKNIVDLLLNSLKPEDNAVYYCAALESYGKYHGYWGEGTQVTVSS | low polyreactivity
QVQLVESGGGLVQAGGSLRLSCASSGNIFVAYAMGWYRQAPGKERELVAAITSGGRTYADSVKGRFTISRDNAKNTVYLQMNSLKPEDTAVYYCNADPYYVYLGYYDRYYSGYGYWGQGTQVTVSS | low polyreactivity
QVQLVESGGGLVQAGGSLRLSCAASGYTFGRYAMGWYSQAPGKERELVAAITKSGGRTSYADSVKGRFTISRDNEKNTVYLQMTSLKPEDTAVYYCNKVRFQPYWVVYATGDYWGQGTQVTVSS | high polyreactivity
QVQLVESGGGLVQAGGSLRLSCAASGIIFRGYVMGWYRQAPGKERELVAAISTSGGRTSYADSVKGRFTISRDYAKNTVYLQMNSLKPEDTAVYYCAARPLYSYSQWGYGYWGQVTQVTVSS | high polyreactivity
QVQHVESGGGLVQAGGSLRLSCAASGFIFSTNAMGRYRQAPGKERELVATIRSGGSTNYADSVKGRFTISRDNAKYTVYLQMNSLKPEDTAVYYCNVDDTSWTTSGGRFGQVEYDYWGQGTQVTVSS | low polyreactivity
QVQLVESGGGLVQAGGSLRLSCAASGSTFYVYAMGWYRQAPGKERELVAAISKRGGTTYYADSVKGRFTISRDNAKNTVYLQMNSLKPEDTAVYYCAADVRSPSAGYQGGYWGQGTQVTVSS | high polyreactivity
QVQLVESGGGLVQAGGSLRLSCAASGSTINKYAMGWYRQAPGKERELVAAISRSGGSTNYADSVKGRFTISRDNAKNTVYLQMNSLKPEDTAVYYCNAGYGRWQRHDYWGQGTQVTVSS | high polyreactivity
QVQLVESGGGLVQAGGSLRLSCAASVSTFISYAMGWYRQAPGKERELVAAISSSTGRTYYADSVKGRFTISRDNAKNTVYLQLNSLKPEDTAVFYCNAVHRYERDYWGQGTQVTVSS | high polyreactivity
QVQLVESGGGLVQAGGSLRLSCAASGSIFYVYAMGWYRQAPGNERELVAVIRRGGSTKYADSVKGRFTISRDNAKNTVYLQMNSLKPEDTAVYYCNVVGYAYGWQYDYWGQGTQVTVSS | high polyreactivity
QVQLVESGGGLVQAGGSLRLTSAASGITFYGYAMGWYRQAPGKETELVAAISRSGSSTYYADSVKGRFTISRYNAKNTVYLQMNSLKPEVTAVYYCAARAWAQWGDYWGQGTQLTVSS | high polyreactivity
QVHLVESGGGLFQAGGSLRISCAASGRIFIGNAMGWYRPAPGKERELVAAISKRGGSTYYADSVKGRFTISRDYAKNTVYLQMNSLKPEDTAVYYCNKESLYREFDYWGQGTQVTVSS | low polyreactivity
QVQLVESGGGLVQAGGSLRLTCAASGSIFRINAMGWYRQEPGKEREFVAVITSRTGNTYYADSVKGRFTISRDNAKNTVYLQMNSLKPEDTAVYYCAADYPPARWEMEYWGQGTQVTVSS | low polyreactivity
QVQLVESGGGLVQAGGRLSLICAASGSIFPINAMGWYRQAPGKERELVADITSGGSTNYADSVKGRFTISRDNAKNTVYLQMNSLKPEDTAVYYCAADWRYWRWAFDYWGQGTQVTVSS | high polyreactivity
QVQLVESGGGLVQAGGSLSLICAASGSTSYRYAMGWYRQAPGKERELVAGITRSGGSTYYADSVKGRFTISRDNAKNTVYLQMNSLKPEDTAVYYCAAYYSRQYVGYGYWGQGTQVTVSS | high polyreactivity
QVQLVESGGGLVQAGGSLRLSCAASGYTFSFNAMGWYRQAPGKEREFVAAIDFGGAGTYYADSVKGRFTISRDTAKKTVYLQMNSLKPEDTAVYYCNARDGVTTEFDYWGQGTQVTVAS | low polyreactivity
QVQLVESGGGLVQAGGSLRLSCAASGFIFLDYAMGWYRQAPGKERELVAAISSRGARTYYADSVKGRFTISRDNAKNTVYLQMNSLKPEDTAVYYCAARGPLVRYGYWGHGTQVTVSS | high polyreactivity
QVQLVESGGGLVQAGGSLRLSCSASGSIFDGYAMGWYRQAPGKEREIVAAISKGGTRTYYADSVMGRFTISRDNAKNTVYLQMNSLKPEDTAFYYCNAYYRREPDDGDYDYWGQGSQVTVSS | high polyreactivity
QVQLVESGGGLVQAGGSLRLSSAASGRTLSKNAMGWYRQAPGKERELVATISSVGRTNYADSVKGRFTISRDNAKNTVYLQMNSLKPEDTAVYYCAATVRGKRSTYDYWGQGTQVTVSS | high polyreactivity
QVQLVESGGGLVQAGGSLRLTCAASGRTFYIYAMGWYRPAPGKERQLVAAITYGGGRTFYADSVKGRFTISRYNAKNTVYLQMNSLKPEDTAVYYCGATVRGKRSTYDYWGQGTQVTVSS | high polyreactivity
QVQLVESGGGLVQAGGSLRLSCAASGIIFAWYVMGWYRQAPGKERELVAAITQSGGSTFYADSVKGRFTISRDNAKNTVYLQMNSLKPEDTAVYYCNTEDFFNVPEMDSWGQGTQVTVSS | low polyreactivity
QVQLVESAGGLVQAGGSLRLSCAASGSTIYPNAMGWYRQAPGKERELVAVISSGGSTYYADSVKGRFTISRDNAKNTVYLQMNSLKPEDTAVYYCADERYYFPRSYRYGYWGQGTQVTVSS | low polyreactivity
QVQLVESGGGLVQAGGSLRLTCAASGSIIKRNAMGWYRQAPGKERELVASISSGGSTKYADSVKGRFTISRDNAKTTVYLQMNSLKPEDTAVYYCPKRSSQTRRAYDYWGQGTQVTVSS | low polyreactivity

Sequence | polyreactivity (PSR sort gate)
QVQLVESGGGLVQAGGSLRLSCAASGSIFVRYTMGWYRQAPGKERELVAAISWGGGSTYYADSVKGRFTISRDNAKNTVYLQMNSLKPEDTAVYYCNKRYIQLYDYWGQGTQVTVSS | low polyreactivity
QVQLVESGGGLVQAGGSLRLSCAASGSIFTPYAMGWYRQAPGKERELVAAISRSGGSTYYADSVKGRFTISRDNAKNTVYLQMNSLKPEDTAVYYCAVVVYDIYGYESDYWGQGTQVTVSS | low polyreactivity
QVQLVESGGGLVQAGGSLRLSCAGSGSIFHPYAMGWYRQAPGKERELVAAISKSGGNTYYADSVKGRFTISRDNAKNTVYLQMNSLKPEATAVYYCAALDYWGQGTQVTVSS | low polyreactivity
QVQLVESGGGLVQAGGSLRLSCAASGRTFVTNAMGWSRQAPGKERELVAAISSGDRTYYADSVKGRFTISRDNAKNTVYLQMNSLKPEDTAVYYCAKVSRRGIVGYWGQGTQVTVSS | high polyreactivity
QVQLVESGGGLVQAGGSLRLSCAASGSTFNHYAMGWYRQAPGKERELVAAITKSGGSTYADSVKGRFTISRDNAKNTVYIQMNSLKPEDTAVYYCAAGRRKYGTKGRGDYWGQGTQVTVSS | low polyreactivity
QVHLVESGGGLVQAGGSLRLSCAASGSIFRYNVKAWYRQAPGNERQFVAANTARGGSTYYPESVKVRFTISRDYAKNTVYRQMISMKPEDTAVYYCATVSQQSRSLGIDRIYYWGQGTQVTVSS | high polyreactivity
QVQLVESGGGLVQAGGSLRLSCAASGSIFVGYARGWYRQAPGKERELVAAISFSGGSTYYADSVKGRFTLSRDNAKNTVYLQMNSLKPEDTAVYYCNAYSWYNGIGNYDYWGQGTQVTVSS | low polyreactivity
QVQLVESGGGLVQAGGSLRLSCAASGLTFSGNTMGWYRQAPGKVRELVAAISSDGSTNYADSVKGRFTISRDNAKNTVYLQMNSLKPEDTAVYYCNARVRYYFAFWRDYWGQGTQVTVSS | low polyreactivity
QVQLQESGGGLVQEGGSLRLSCAASGNISPPADMGWYRQAPGKERELVASIGTGGTTNYADSVKGRFTISRDNAKNTVYLQMNSLQPDDTAVYYCAAVRYEYNPYDYWGQGTQVTVSS | low polyreactivity
QVQLVESGGGLVQAGGSLRLSCAASGSIFYGYDMGWYRQAPGKERELVAAITIGGGTTYYADSVKGRFTISRDNAKNTVYLQMNSLKPEDTAVYYCAAEFYYTIYSNKVGYDYWGQGTQVSVSS | high polyreactivity
QVQLVESGGGLVQAGGSLRLSCAASGSIFVGYTMGWYRQAPGKETELVADITYNGGTTYYADSVKGRFTISRDNAKNTVYLQMNSLKPEETAVYYCAADYYYACFPVYYWGQGTQVTVSS | high polyreactivity
QVQLVESGGGLVQAGGSLRKSCAASGSIFADKAMGWYRQAPGKERELVATISAPDGSTYYADYVKGRFTISGDNAKNTVYLQMNSLKPEDTAVYYCAASGYYILSWRYDYWGQGTQVTVSS | low polyreactivity
QVQLVESGGGLVQAGGSLRLSCAASGFIFGLYAMGWYRQAPGKERELVATISWDGGSTYYADSVKGRFTISRDNAKNTVYLQMNSLKPEDTAVYYCNARYIGGYGYWGQGTQVTVSS | low polyreactivity
QVQLVESGGGLVQAGGSLRLSCAASGGIFNYYAMGWYRQAPGKERELVAAISASGGSTYYADSVKGRFTISRDNAKNTVYLQMNSLKQEDTAVYYCAAKYPQKTPVNSYGNSFYYWGQGTQVTVSS | low polyreactivity
QVHLEDSGGGLVQAGVILRLSSPASGSIFVYNAMGWYRPAPGKERELVAAISSSGGSTYYADSVKGRFTISRDNAKNTVYLQMNSLKPEDTAVYYCAAEAVRKVPSYYSYAYYYWGQGTQVTVSS | high polyreactivity
QVQHVESGGGLVQAGGSLRLSCAASGRTFTRYTMGWYRQAPGKERELVAAIRFSGGSTYYADSVKGRFTISRDNAKNTVYLQMNSLKPEDTAVYYCAATGGWYKHWFDYWGQGTQVTVSS | low polyreactivity
QVQLVESGGGLVQAGGSLRLSCAASGIILYRYAMGWYRQAPGKERELVAAISRRGGSTYYADSVKGRFTISRDNAKNTVYLQMNSLKPEDTAVYYCATRSTFYSRWGEVYTYYYWGQGTQVTVSS | high polyreactivity
QVQLVESGGGLVQAGGSLRLSCAASGFIFYRYAMGWYRQAPGKERELVAAISSGGGRTYYADSVKGRFTISRDNAKNTVYLQMNSLKPEDTAVYYCAKGYFWSSYVSSRYGSWGQGTQVTVSS | high polyreactivity
QVQLVESGGGLVQAGGSLRLSCAASGSIFTIYAMGWYRQAPGKERELVAAINRGDGTNYADSVKGRFTISRDNAKNTVYLQMNSLKPEDTAVYYCAAKAYTNYDRQVNLRRYYWGQGTQVTVSS | high polyreactivity
QVQLVESGGGLVQAGGSLRLSCAASGSNFSFNGLGWYRQAPGKERGLVAAITTSGGSTYYADSVKGRFTISRDNAKNTVYLQMNSLTPEDTAVYYCAAVGPDNSLYEPMDYWGLGTQVTVSS | low polyreactivity
QVQLVESGGGLVQAGGSLRLSCAASGFTFNKYAMGWYRQAPRKERELVAAISSSGGSTRYADSVKGRFTISRDNAKNTVYLQMISLKPEDTAVYYCAVYVTRDSGWWLYDYWGQGTQVTVSS | high polyreactivity
